Source: article PMC5787828, “NAC transcription factor JUNGBRUNNEN1 enhances drought tolerance in tomato”

T1: AtJUB1-GST (Arabidopsis thaliana, UniProt Q9SK55 1-275)
T1 sequence: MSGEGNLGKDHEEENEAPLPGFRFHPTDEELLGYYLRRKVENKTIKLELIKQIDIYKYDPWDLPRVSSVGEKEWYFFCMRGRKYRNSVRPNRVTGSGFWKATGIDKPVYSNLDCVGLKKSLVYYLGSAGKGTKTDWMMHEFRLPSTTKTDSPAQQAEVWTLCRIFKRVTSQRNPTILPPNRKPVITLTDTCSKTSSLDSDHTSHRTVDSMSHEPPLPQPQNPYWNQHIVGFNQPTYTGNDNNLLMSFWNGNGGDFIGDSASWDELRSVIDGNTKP

B1: SlDREB1 promoter probe (dsDNA)
DNA 1: TTATTTAGTCGAGTCGTGGCTGTTGGGATGCCGCGGAATTCAGCACGTG
DNA 2: CACGTGCTGAATTCCGCGGCATCCCAACAGCCACGACTCGACTAAATAA
B2: SlDREB2 promoter probe (dsDNA)
DNA 1: TATATGGCTGTGCTTGATCGAACTTCAAATATGATGTTACCTATGGATTA
DNA 2: TAATCCATAGGTAACATCATATTTGAAGTTCGATCAAGCACAGCCATATA
B3: SlDELLA promoter probe (dsDNA)
DNA 1: ATTTTTCACACTTGACCACCACCACTTTTACTTGCCCTACTAAATCTAAA
DNA 2: TTTAGATTTAGTAGGGCAAGTAAAAGTGGTGGTGGTCAAGTGTGAAAAAT

molecular target: T1, AtJUB1-GST; test: EMSA; abolished by 100x unlabelled competitor; Odyssey Infrared EMSA kit (LI-COR); buffer, salt, pH and temperature not stated; conditions: protein: recombinant; tags: GST (pDEST24 fusion); chain copies: 2; label: 5'-DY682; blunt

Binding result, binds:
B1, B2, B3
